Legend:
[1] = molecular target: T1, S. cerevisiae wild type Msh2-Msh6 (S. cerevisiae, UniProt P25847 1-964; Q03834 1-1242); test: SPR; Biacore T100, 25°C; biotinylated 236 bp DNA (GC base pair, central TG mispair or +T insertion, lacO end blocked by 30 nM LacI) on a streptavidin SA chip; 20 nM Msh2-Msh6 or Msh2-Msh3 with 250 µM ATP injected for 100 s, then the same mixture with 40 nM Mlh1-Pms1 or Mlh1-Mlh2 for 150 s; 25 mM Tris-Cl pH 8.0, 4 mM MgCl2, 110 mM NaCl, 0.01% Igepal, 2 mM DTT, 2% glycerol; signal of the MutL homolog on DNA alone …; details: both partners purified
T1 construct: Msh2, S. cerevisiae, wild type, from the pET11 MSH2-MSH6 plasmid; Msh6, S. cerevisiae, wild type, from the pET11 MSH2-MSH6 plasmid; also called Msh2-Msh6 heterodimer; source: E. coli BL21 (DE) RIL, pET11 MSH2-MSH6 plasmid, purified according to a previously published procedure
T1 sequence (P25847 whole entry, chain 1 of 2): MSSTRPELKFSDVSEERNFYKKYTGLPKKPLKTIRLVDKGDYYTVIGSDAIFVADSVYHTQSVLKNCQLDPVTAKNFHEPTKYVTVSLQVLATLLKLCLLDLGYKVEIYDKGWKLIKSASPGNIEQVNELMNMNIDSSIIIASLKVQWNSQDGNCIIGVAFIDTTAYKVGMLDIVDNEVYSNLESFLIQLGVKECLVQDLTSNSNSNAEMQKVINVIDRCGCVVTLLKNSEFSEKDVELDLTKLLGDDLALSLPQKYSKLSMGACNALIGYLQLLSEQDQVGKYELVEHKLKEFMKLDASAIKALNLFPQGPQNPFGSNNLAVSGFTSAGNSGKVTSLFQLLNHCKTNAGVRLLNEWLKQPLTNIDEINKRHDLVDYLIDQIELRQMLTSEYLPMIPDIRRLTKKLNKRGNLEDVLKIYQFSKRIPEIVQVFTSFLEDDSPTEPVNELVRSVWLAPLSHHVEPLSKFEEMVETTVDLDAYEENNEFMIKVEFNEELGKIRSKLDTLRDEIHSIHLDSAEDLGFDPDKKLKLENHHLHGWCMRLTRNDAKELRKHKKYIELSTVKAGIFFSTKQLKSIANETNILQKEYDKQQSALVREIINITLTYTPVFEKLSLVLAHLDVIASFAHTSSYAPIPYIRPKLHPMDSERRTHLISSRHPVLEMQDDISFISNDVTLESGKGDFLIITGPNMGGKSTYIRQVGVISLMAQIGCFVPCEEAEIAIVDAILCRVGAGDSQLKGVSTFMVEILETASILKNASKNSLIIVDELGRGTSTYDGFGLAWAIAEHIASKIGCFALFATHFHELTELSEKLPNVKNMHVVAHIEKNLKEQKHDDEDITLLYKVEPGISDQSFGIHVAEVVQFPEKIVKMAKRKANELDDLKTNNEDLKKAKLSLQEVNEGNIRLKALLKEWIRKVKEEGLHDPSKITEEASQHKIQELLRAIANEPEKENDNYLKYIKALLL
T1 sequence (Q03834 whole entry, chain 2 of 2): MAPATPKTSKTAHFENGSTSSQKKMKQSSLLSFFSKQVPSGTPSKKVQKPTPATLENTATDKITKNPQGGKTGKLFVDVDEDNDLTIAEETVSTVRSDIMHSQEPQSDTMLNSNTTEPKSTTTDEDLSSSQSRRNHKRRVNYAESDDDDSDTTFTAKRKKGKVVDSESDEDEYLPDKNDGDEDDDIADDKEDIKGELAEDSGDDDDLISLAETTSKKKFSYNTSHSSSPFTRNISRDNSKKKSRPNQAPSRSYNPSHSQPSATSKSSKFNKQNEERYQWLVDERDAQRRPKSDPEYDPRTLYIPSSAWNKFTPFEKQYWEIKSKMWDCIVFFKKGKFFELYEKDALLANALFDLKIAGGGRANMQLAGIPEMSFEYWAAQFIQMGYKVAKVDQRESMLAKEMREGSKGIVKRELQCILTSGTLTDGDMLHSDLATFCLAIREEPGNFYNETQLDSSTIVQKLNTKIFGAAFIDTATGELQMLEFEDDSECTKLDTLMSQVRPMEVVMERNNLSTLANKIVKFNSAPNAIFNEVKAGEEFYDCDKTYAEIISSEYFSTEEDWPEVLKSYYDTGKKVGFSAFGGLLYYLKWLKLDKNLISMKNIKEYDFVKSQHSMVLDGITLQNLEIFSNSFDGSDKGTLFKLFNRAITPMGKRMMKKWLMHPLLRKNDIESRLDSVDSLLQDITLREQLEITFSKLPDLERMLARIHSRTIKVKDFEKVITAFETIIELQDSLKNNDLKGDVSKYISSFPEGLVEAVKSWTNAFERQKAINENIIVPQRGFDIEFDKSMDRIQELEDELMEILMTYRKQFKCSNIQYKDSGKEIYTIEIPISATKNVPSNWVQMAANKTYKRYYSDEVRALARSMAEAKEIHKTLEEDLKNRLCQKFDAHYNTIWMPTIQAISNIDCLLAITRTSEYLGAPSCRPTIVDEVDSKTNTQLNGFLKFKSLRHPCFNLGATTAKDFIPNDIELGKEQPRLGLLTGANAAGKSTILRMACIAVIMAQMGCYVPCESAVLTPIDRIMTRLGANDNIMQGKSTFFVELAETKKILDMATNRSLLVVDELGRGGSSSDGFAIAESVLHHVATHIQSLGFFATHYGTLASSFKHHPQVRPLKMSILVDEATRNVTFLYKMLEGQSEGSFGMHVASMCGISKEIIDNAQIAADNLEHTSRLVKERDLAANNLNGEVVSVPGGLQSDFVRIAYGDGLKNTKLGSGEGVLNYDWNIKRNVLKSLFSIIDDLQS

S. cerevisiae Msh2-Msh3 = molecular target: T2, S. cerevisiae Msh2-Msh3 (S. cerevisiae, UniProt P25847 1-964; P25336 1-1018); test: as above; details: both partners purified
T2 construct: Msh2, S. cerevisiae, expressed from pRDK354 (pGAL1-10-MSH2 URA3); Msh3, S. cerevisiae, expressed from pRDK1596 (pGAL1-10 MSH3-FLAG LEU2); also called Msh2-Msh3 heterodimer; source: S. cerevisiae RDKY2418 with pRDK354 and pRDK1596, purified as described previously
T2 sequence (P25847 whole entry, chain 1 of 2): as the sequence (P25847 whole entry, chain 1 of 2) above
T2 sequence (P25336 whole entry, chain 2 of 2): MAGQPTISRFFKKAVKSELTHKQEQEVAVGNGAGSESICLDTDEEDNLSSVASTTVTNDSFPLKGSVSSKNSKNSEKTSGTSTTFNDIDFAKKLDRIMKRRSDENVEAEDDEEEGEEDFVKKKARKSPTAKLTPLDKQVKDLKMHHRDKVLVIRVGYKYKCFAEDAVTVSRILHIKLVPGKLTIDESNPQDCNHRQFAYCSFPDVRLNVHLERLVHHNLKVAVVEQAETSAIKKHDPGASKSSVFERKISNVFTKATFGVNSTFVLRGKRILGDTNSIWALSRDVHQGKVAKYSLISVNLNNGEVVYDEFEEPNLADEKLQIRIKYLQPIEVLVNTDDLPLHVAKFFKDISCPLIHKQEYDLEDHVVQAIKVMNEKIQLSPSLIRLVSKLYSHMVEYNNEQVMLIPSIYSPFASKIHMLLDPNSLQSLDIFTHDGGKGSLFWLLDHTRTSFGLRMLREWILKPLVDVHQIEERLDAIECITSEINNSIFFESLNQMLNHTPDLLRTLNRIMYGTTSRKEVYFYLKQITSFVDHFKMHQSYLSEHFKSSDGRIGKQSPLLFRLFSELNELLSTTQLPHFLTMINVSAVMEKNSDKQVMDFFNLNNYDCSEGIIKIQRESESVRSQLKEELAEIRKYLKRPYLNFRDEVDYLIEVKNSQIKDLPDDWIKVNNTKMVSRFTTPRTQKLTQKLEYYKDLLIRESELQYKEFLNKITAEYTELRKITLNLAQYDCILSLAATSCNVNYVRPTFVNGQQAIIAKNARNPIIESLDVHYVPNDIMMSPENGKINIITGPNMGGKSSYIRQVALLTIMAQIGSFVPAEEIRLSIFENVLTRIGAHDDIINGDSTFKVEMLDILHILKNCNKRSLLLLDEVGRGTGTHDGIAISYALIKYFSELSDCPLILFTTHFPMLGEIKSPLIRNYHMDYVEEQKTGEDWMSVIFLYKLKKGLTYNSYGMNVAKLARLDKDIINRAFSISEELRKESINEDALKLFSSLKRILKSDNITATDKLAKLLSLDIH

B1: S. cerevisiae Mlh1-Pms1 complex (complex)
chain 1: MSLRIKALDASVVNKIAAGEIIISPVNALKEMMENSIDANATMIDILVKEGGIKVLQITDNGSGINKADLPILCERFTTSKLQKFEDLSQIQTYGFRGEALASISHVARVTVTTKVKEDRCAWRVSYAEGKMLESPKPVAGKDGTTILVEDLFFNIPSRLRALRSHNDEYSKILDVVGRYAIHSKDIGFSCKKFGDSNYSLSVKPSYTVQDRIRTVFNKSVASNLITFHISKVEDLNLESVDGKVCNLNFISKKSISPIFFINNRLVTCDLLRRALNSVYSNYLPKGNRPFIYLGIVIDPAAVDVNVHPTKREVRFLSQDEIIEKIANQLHAELSAIDTSRTFKASSISTNKPESLIPFNDTIESDRNRKSLRQAQVVENSYTTANSQLRKAKRQENKLVRIDASQAKITSFLSSSQQFNFEGSSTKRQLSEPKVTNVSHSQEAEKLTLNESEQPRDANTINDNDLKDQPKKKQKLGDYKVPSIADDEKNALPISKDGYIRVPKERVNVNLTSIKKLREKVDDSIHRELTDIFANLNYVGVVDEERRLAAIQHDLKLFLIDYGSVCYELFYQIGLTDFANFGKINLQSTNVSDDIVLYNLLSEFDELNDDASKEKIISKIWDMSSMLNEYYSIELVNDGLDNDLKSVKLKSLPLLLKGYIPSLVKLPFFIYRLGKEVDWEDEQECLDGILREIALLYIPDMVPKVDTSDASLSEDEKAQFINRKEHISSLLEHVLFPCIKRRFLAPRHILKDVVEIANLPDLYKVFERC
chain 2: MTQIHQINDIDVHRITSGQVITDLTTAVKELVDNSIDANANQIEIIFKDYGLESIECSDNGDGIDPSNYEFLALKHYTSKIAKFQDVAKVQTLGFRGEALSSLCGIAKLSVITTTSPPKADKLEYDMVGHITSKTTTSRNKGTTVLVSQLFHNLPVRQKEFSKTFKRQFTKCLTVIQGYAIINAAIKFSVWNITPKGKKNLILSTMRNSSMRKNISSVFGAGGMRGLEEVDLVLDLNPFKNRMLGKYTDDPDFLDLDYKIRVKGYISQNSFGCGRNSKDRQFIYVNKRPVEYSTLLKCCNEVYKTFNNVQFPAVFLNLELPMSLIDVNVTPDKRVILLHNERAVIDIFKTTLSDYYNRQELALPKRMCSQSEQQAQKRLKTEVFDDRSTTHESDNENYHTARSESNQSNHAHFNSTTGVIDKSNGTELTSVMDGNYTNVTDVIGSECEVSVDSSVVLDEGNSSTPTKKLPSIKTDSQNLSDLNLNNFSNPEFQNITSPDKARSLEKVVEEPVYFDIDGEKFQEKAVLSQADGLVFVDNECHEHTNDCCHQERRGSTDTEQDDEADSIYAEIEPVEINVRTPLKNSRKSISKDNYRSLSDGLTHRKFEDEILEYNLSTKNFKEISKNGKQMSSIISKRKSEAQENIIKNKDELEDFEQGEKYLTLTVSKNDFKKMEVVGQFNLGFIIVTRKVDNKYDLFIVDQHASDEKYNFETLQAVTVFKSQKLIIPQPVELSVIDELVVLDNLPVFEKNGFKLKIDEEEEFGSRVKLLSLPTSKQTLFDLGDFNELIHLIKEDGGLRRDNIRCSKIRSMFAMRACRSSIMIGKPLNKKTMTRVVHNLSELDKPWNCPHGRPTMRHLMELRDWSSFSKDYEI
notes: Mlh1, S. cerevisiae, expressed from pRDK573 (pGAL1-10-MLH1 TRP1); Pms1, S. cerevisiae, expressed from pRDK1099 (pGAL1-10-PMS1-FLAG LEU2); also called Mlh1-Pms1 heterodimer
- binding result [1]: binds
- binding result (S. cerevisiae Msh2-Msh3): binds

B2: S. cerevisiae Mlh1-Mlh2 complex (complex)
chain 1: B1 chain 1
chain 2: MTIHQLSPESQWKIVSSSFIYGPVAAVRELLDNSIDSGAKKVFIDVDSTTGGCEYISVKDDGSGVDIIDRPSMCLEYTTSKMSSLGDISILTTLGFRGEALFLLSNLCNQKGSMQVETKTADDVIGEKWLVDSKGGITNGKRYKVSCPVGTTVILRKLLGGLRARYLEISSRPRKTFDELIYLINHYSLIHRNIRFYFSLVSLQKNGAIERKQMQETLDPKISRARSLSLLARLKKPVPLNFIVEENFVIDEKINLDLILPRMVPESDVINIKRRFKFLSVNERALSLNLETGKTISKLLSSIYRDFSLLDPMVWFINLNCDTKLLDVNIEPEKNDVMIKSFEVIFKKIENKLKLLLEERIGIETNMLGDKHVQPSINEKTSPALVIPTPDAENEISKGCGAVSGKDKTDIPQKNSDLIVPTFYDEANLENTTIVAATPSPTKFSEDKALDEQTQLTISSYRSSSSGSMASEDSTNWRHNFQQELSENSEVAGAGSSTLPSSLTYNYIETIPENEDLELSKDASISNPFMITKIRNVNKKLSENLLEAKRTSCGDANKRGMPNERQLSNTEKKELIKLQQTYGKRNNTVDMTIPRNSKKKVTDNYIKKASCMHKTRPKLMHFSEYTNNYVYTLKNEKIVKHDSDNFAKETLWLRSRDDATSPSSSLLQALRAHVKKPGHIEATTNEWCLFTPDSP
notes: Mlh1, S. cerevisiae, expressed from pRDK573 (pGAL1-10-MLH1 TRP1); Mlh2, S. cerevisiae, MLH2 ORF put in place of the PMS1 ORF of pRDK1099, giving pRDK1664 (pGAL1-10-Mlh2-FLAG LEU2); Purified as a preformed complex through the FLAG tag on Mlh2; used at 40 nM in the SPR assay; also called Mlh1-Mlh2 heterodimer
- binding result [1]: binds
- binding result (S. cerevisiae Msh2-Msh3): binds

From publication PMC4014439, “Mlh2 Is an Accessory Factor for DNA Mismatch Repair in Saccharomyces cerevisiae” (PLoS Genetics, 2014)
